Reference: article PMC8173005

Experiments:
[1] = biological target: staphylococcal protein A ligand of the BabyBio A column (Bio-Works) (staphylococcal (so in the source)); assay: affinity chromatography; dynamic binding capacity at 10% breakthrough; 1 mL columns of peptide-coupled agarose or BabyBio A; 1 mg/mL infliximab in 0.01% PBST pH 7.4 loaded at 0.5 mL/min; elution with 20 mM glycine-HCl pH 3.0 (peptide resins) or 100 mM Na-citrate pH 3.0 (BabyBio A)
[2] = biological target: polyclonal human IgG (Octagam, Octapharma) (human); assay: ELISA; phage ELISA; MaxiSorp wells coated with human polyclonal IgG (Octagam, 5 µg/mL), blocked with skimmed milk; peptide-displaying phagemid virions in solution, 2 × 10^9 virions per well or serial dilutions from 2.5 × 10^10 to 1.95 × 10^8 virions per well; detection with HRP-conjugated anti-M13 antibody and TMB; triplicate

Molecule | amount of infliximab in the eluate [1] | dynamic binding capacity at 10% breakthrough [1] | fold higher estimated affinity than the parent peptide min19Fc-Q6D [2]
infliximab (Remsima, Celltrion) (antibody) | 41.2 mg | 41.3 mg/mL | –
GSYWYNVWF [peptide A displayed on pIT2-SL phagemid virions] | – | – | 16 fold
